{"source": "paper PMC5021801", "key": {"[1]": {"target": "hypercleavable mutant form of TgAMA1 (AMA1^L/G) on Toxoplasma gondii tachyzoites (Toxoplasma gondii) (UniProt B6KAM0)"}, "[2]": {"target": "FLAG-tagged wild-type TgAMA1 on Toxoplasma gondii tachyzoites (Toxoplasma gondii) (UniProt B6KAM0)"}}}
{"substance": "D3 domain of TgRON2 fused to glutathione S-transferase (GST-D3) (domain or fragment)", "values": [{"measurement": "constitutive cleavage and shedding of AMA1^L/G, microneme secretion assay, saturating (1 µM) GST-D3 against GST; percent inhibition", "setting": "[1]", "result": 50, "unit": "%"}, {"measurement": "amount of FLAG-tagged TgAMA1 ectodomain shed into the supernatant, constitutive microneme secretion assay, against GST-treated controls; dose dependent from 0.01 to 1 µM GST-D3, fold decrease at 5 µM", "setting": "[2]", "result": 5.7, "unit": "fold"}]}
